Source: publication doi:10.1101/2021.06.29.450403

Molecular target: recombinant rAQP4ct protein (complete cytosolic C-terminal domain of human AQP4, residues 254-323) (human) (UniProt P55087)
Assay: ITC

- stoichiometry N: 1
Substance: Chicken calmodulin (CaM) (from UniProt P62149 1-149) (natural protein)
